Reference: PMC2702006
Blank lines part the entries; values can stand above or below the substance they belong to.

Columns and labels:
[1] = biological target: human Hsp90β (human) (UniProt P08238); test: cross-linking
[2] = biological target: yeast Hsp90 L15A (yeast) (UniProt P02829)
[3] = biological target: yeast Hsp90 L18A (yeast) (UniProt P02829)
[4] = biological target: yeast Hsp90 L18R (yeast) (UniProt P02829)

Sequence of human Hsp90β, P08238 1-724 (natural protein; other documents disagree on this pair) (P08238 whole entry): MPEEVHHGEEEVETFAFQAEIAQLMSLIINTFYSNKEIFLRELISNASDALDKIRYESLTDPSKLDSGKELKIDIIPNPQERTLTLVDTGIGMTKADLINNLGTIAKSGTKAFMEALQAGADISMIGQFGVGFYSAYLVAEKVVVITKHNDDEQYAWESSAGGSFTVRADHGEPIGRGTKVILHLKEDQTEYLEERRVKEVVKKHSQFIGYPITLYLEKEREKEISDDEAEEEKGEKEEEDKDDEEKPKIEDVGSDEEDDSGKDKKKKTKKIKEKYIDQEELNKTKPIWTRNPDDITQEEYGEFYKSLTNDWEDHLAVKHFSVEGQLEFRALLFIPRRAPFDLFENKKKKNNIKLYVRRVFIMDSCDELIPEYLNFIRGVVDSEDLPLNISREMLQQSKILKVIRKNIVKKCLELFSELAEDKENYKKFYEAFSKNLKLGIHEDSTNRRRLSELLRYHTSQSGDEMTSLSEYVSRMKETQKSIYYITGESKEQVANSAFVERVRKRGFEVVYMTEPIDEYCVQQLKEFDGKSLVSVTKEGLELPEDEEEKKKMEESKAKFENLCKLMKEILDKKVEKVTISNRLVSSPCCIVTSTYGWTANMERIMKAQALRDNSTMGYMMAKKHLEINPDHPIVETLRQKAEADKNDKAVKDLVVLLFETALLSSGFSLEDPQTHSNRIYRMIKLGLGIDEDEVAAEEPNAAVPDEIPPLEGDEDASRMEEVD

- stoichiometry N [1]: 2
Substance: human Hsp90β, P08238 1-724 (natural protein; other documents disagree on this pair)

- ATPase activity relative to wild-type yeast Hsp90 [2]: 157
Substance: yeast Hsp90 L15A (from UniProt P02829 1-709) (natural protein)

- ATPase activity relative to wild-type yeast Hsp90 [3]: 103
Substance: yeast Hsp90 L18A (from UniProt P02829 1-709) (natural protein)

- ATPase activity relative to wild-type yeast Hsp90 [4]: 42
Substance: yeast Hsp90 L18R (from UniProt P02829 1-709) (natural protein)
